Test results reported in patent US20090068182A1 (ARIUS RESEARCH, published 2009).
Where a chain is given by its changes, count along the chain named.

Legend:
[1] = target: T1, AR40A746.2.3 antigen (CD9) in rhesus monkey normal tissues (rhesus monkey, UniProt I0FWF4 2-228); assay: IHC on normal tissue micro arrays, 5 micrograms/mL
T1 construct: whole, on cells; also called rhesus monkey CD9
T1 sequence: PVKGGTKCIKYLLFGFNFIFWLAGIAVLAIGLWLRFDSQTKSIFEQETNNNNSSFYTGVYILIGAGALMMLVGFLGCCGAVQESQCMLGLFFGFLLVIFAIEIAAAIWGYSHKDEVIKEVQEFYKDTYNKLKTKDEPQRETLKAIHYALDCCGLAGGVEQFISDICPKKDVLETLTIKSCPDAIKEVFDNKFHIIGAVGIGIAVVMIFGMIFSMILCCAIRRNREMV
Procedure: (§1) IHC studies were conducted to evaluate the cross reactivity of AR40A746.2.3 to non human species tissues in order to find suitable preclinical toxicology model(s). All tissues used were formalin fixed paraffin embedded. The binding of AR40A746.2.3 to 8 normal tissues of cynomolgus and rhesus monkey (Biochain, CA, USA) and 10 normal tissues of rabbit, rat, mouse and sheep (Zymed laboratories Inc, CA, USA) was performed using tissue micro arrays. Previous experiments were conducted to optimize the IHC binding conditions of the antibody. Tissue sections were deparaffinized by drying in an oven at 58° C. for 1 hour and dewaxed by immersing in xylene 5 times for 4 minutes each in Coplin jars. Following treatment through a series of graded ethanol washes (100 to 75 percent) the sections were re-hydrated in water. The slides were immersed in 10 mM citrate buffer at pH 6 (Dako, Toronto, Ontario) then microwaved at high, medium, and low power settings for 5 minutes each and finally immersed in cold PBS. […] Immunoreactivity of the primary antibodies was detected/visualized with HRP conjugated secondary antibodies as supplied (Dako Envision System, Toronto, Ontario) for 30 minutes at room temperature. […]

[2] = target: T2, AR40A746.2.3 antigen (CD9) in mouse normal tissues (mouse, UniProt P40240 1-226); assay: IHC on formalin fixed paraffin embedded normal tissue micro array
T2 construct: whole, on cells; also called mouse CD9
T2 sequence (looked up): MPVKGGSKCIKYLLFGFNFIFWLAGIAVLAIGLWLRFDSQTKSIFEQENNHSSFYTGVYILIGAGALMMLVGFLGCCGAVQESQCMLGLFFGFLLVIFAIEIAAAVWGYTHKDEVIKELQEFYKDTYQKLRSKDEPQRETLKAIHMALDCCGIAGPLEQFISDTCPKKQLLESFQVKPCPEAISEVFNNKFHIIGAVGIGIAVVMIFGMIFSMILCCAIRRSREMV
Procedure: as §1

[3] = target: T3, AR40A746.2.3 antigen (CD9) in rat normal tissues (rat, UniProt P40241 1-226); assay: as above
T3 construct: whole, on cells; also called rat CD9
T3 sequence (looked up): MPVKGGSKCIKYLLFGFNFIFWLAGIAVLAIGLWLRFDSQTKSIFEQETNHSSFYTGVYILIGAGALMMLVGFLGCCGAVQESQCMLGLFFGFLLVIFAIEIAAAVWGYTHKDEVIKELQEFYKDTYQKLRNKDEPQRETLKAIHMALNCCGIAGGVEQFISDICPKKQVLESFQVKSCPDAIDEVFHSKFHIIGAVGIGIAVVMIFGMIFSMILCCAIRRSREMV
Procedure: as §1

human CD9 [4] = target: T4, human CD9 (human, UniProt P21926 2-228); assay: flow cytometry on melanoma WM9 cells, antibody at 20 micrograms/mL
T4 construct: whole, on cells; Endogenous CD9; It stood on human cell lines (FACS, cell ELISA) and in tissue sections (IHC); For immunoprecipitation and Western blot it was solubilised from BxPC-3 cell lysate (band of about 25 kDa); also called AR40A746.2.3 antigen; IDAC 141204-01 antigen
T4 sequence (looked up): T1 sequence with D150N, L175F, I177V
Procedure: (§2) All cell lines were obtained from the American Type Tissue Collection (ATCC, Manassas, Va.) except for the melanoma cell lines WM9, WM35, WM164, WM451, WM537, WM852, WM983, WM1205 and WM1232 which were obtained from Dr. David Hogg (University of Toronto, Toronto, Canada).
(§3) Cells were prepared for FACS by initially washing the cell monolayer with DPBS (without Ca⁺⁺ and Mg⁺⁺). Cell dissociation buffer (Invitrogen, Burlington, ON) was then used to dislodge the cells from their cell culture plates at 37° C. After centrifugation and collection, the cells were resuspended in DPBS containing MgCl₂ CaCl₂ and 2 percent fetal bovine serum at 4° C. (staining media) and counted, aliquoted to appropriate cell density, spun down to pellet the cells and resuspended in staining media at 4° C. in the presence of the test antibody (AR40A746.2.3) or control antibodies (isotype control, anti-EGFR). Isotype control and the test antibody were assessed at 20 micrograms/mL whereas anti-EGFR was assessed at 5 micrograms/mL on ice for 30 minutes. Prior to the addition of Alexa Fluor 546-conjugated secondary antibody the cells were washed once with staining media. […] Flow cytometric acquisition of the cells was assessed by running samples on a FACSarray™ using the FACSarray™ System Software (BD Biosciences, Oakville, ON). […]

human CD9 [5] = target: T4, human CD9; assay: flow cytometry on melanoma A375 cells, antibody at 20 micrograms/mL
Procedure: as §2, §3

human CD9 [6] = target: T4, human CD9; assay: flow cytometry on melanoma WM35 cells, antibody at 20 micrograms/mL
Procedure: as §2, §3

human CD9 [7] = target: T4, human CD9; assay: flow cytometry on melanoma A2058 cells, antibody at 20 micrograms/mL
Procedure: as §2, §3

human CD9 [8] = target: T4, human CD9; assay: flow cytometry on melanoma WM164 cells, antibody at 20 micrograms/mL
Procedure: as §2, §3

human CD9 [9] = target: T4, human CD9; assay: flow cytometry on melanoma WM451 cells, antibody at 20 micrograms/mL
Procedure: as §2, §3

human CD9 [10] = target: T4, human CD9; assay: flow cytometry on melanoma WM537 cells, antibody at 20 micrograms/mL
Procedure: as §2, §3

human CD9 [11] = target: T4, human CD9; assay: flow cytometry on melanoma WM852 cells, antibody at 20 micrograms/mL
Procedure: as §2, §3

human CD9 [12] = target: T4, human CD9; assay: flow cytometry on melanoma WM983 cells, antibody at 20 micrograms/mL
Procedure: as §2, §3

human CD9 [13] = target: T4, human CD9; assay: flow cytometry on melanoma WM1232 cells, antibody at 20 micrograms/mL
Procedure: as §2, §3

human CD9 [14] = target: T4, human CD9; assay: flow cytometry on colon cancer Lovo cells, antibody at 20 micrograms/mL
Procedure: (§4) David Hogg (University of Toronto, Toronto, Canada).
(§5) Cells were prepared for FACS by initially washing the cell monolayer with DPBS (without Ca⁺⁺ and Mg⁺⁺). Cell dissociation buffer (Invitrogen, Burlington, ON) was then used to dislodge the cells from their cell culture plates at 37° C. After centrifugation and collection, the cells were resuspended in DPBS containing MgCl₂ CaCl₂ and 2 percent fetal bovine serum at 4° C. (staining media) and counted, aliquoted to appropriate cell density, spun down to pellet the cells and resuspended in staining media at 4° C. in the presence of the test antibody (AR40A746.2.3) or control antibodies (isotype control, anti-EGFR). Isotype control and the test antibody were assessed at 20 micrograms/mL whereas anti-EGFR was assessed at 5 micrograms/mL on ice for 30 minutes. Prior to the addition of Alexa Fluor 546-conjugated secondary antibody the cells were washed once with staining media. The Alexa Fluor 546-conjugated antibody in staining media was then added for 30 minutes at 4° C. The cells were then washed for the final time and resuspended in fixing media (staining media containing 1.5 percent paraformaldehyde). Flow cytometric acquisition of the cells was assessed by running samples on a FACSarray™ using the FACSarray™ System Software (BD Biosciences, Oakville, ON). […]
(§6) FIG. 2 presents the mean fluorescence intensity fold increase above isotype control. […]

human CD9 [15] = target: T4, human CD9; assay: flow cytometry on colon cancer DLD-1 cells, antibody at 20 micrograms/mL
Procedure: as §2, §3

human CD9 [16] = target: T4, human CD9; assay: flow cytometry on colon cancer HT-29 cells, antibody at 20 micrograms/mL
Procedure: as §4, §5, §6

human CD9 [17] = target: T4, human CD9; assay: flow cytometry on breast cancer MCF-7 cells, antibody at 20 micrograms/mL
Procedure: as §2, §3

human CD9 [18] = target: T4, human CD9; assay: flow cytometry on colon cancer SW1116 cells, antibody at 20 micrograms/mL
Procedure: as §2, §3

human CD9 [19] = target: T4, human CD9; assay: flow cytometry on prostate cancer PC-3 cells, antibody at 20 micrograms/mL
Procedure: as §2, §3

human CD9 [20] = target: T4, human CD9; assay: flow cytometry on ovarian cancer OVCAR-3 cells, antibody at 20 micrograms/mL
Procedure: as §4, §5, §6

human CD9 [21] = target: T4, human CD9; assay: flow cytometry on prostate cancer DU-145 cells, antibody at 20 micrograms/mL
Procedure: as §4, §5, §6

human CD9 [22] = target: T4, human CD9; assay: flow cytometry on breast cancer MDA-MB-231 cells, antibody at 20 micrograms/mL
Procedure: as §2, §3

human CD9 [23] = target: T4, human CD9; assay: flow cytometry on non-cancer lung Hs888.Lu cells, antibody at 20 micrograms/mL
Procedure: as §2, §3

human CD9 [24] = target: T4, human CD9; assay: flow cytometry on non-cancer skin CCD-27sk cells, antibody at 20 micrograms/mL
Procedure: as §2, §3

human CD9 [25] = target: T4, human CD9; assay: flow cytometry on pancreatic cancer BxPC-3 cells, antibody at 20 micrograms/mL
Procedure: as §2, §3

B1: AR40A746.2.3 monoclonal antibody (hybridoma IDAC 141204-01) (antibody, V domains shown)
VH: DVQLQESGPGLVKPSQSLSLTCTVTGYSITSDYAWNWIRQFPGNKLEWMGYISYSGFTNYNPSLKSRISITRDTSKNQFFLQLSSVTTEDTATYFCEGGNYRYSWFPYWGQGTLVTVSA
VL: DIQMTQTTSSLSASLGDRVTISCSASQGISNYLNWYQQKPDGNVKLLIYYTSSLHSGVPSRFSGSGSGTDYSLTISNLEPEDIATYYCQQYSKLPYTFGGGTKLEIKR
notes: also called IDAC 141204-01 antibody; mAR40A746.2.3
binding result [1]: binds
binding result [2]: no binding (tested: 5 micrograms/mL)
binding result [3]: no binding (tested: 5 micrograms/mL)
mean fluorescence intensity fold increase above isotype control (human CD9 [4]): 4.8 fold
mean fluorescence intensity fold increase above isotype control (human CD9 [5]): 4.7 fold
mean fluorescence intensity fold increase above isotype control (human CD9 [6]): 13.8 fold
mean fluorescence intensity fold increase above isotype control (human CD9 [7]): 2.7 fold
mean fluorescence intensity fold increase above isotype control (human CD9 [8]): 3.3 fold
mean fluorescence intensity fold increase above isotype control (human CD9 [9]): 7 fold
mean fluorescence intensity fold increase above isotype control (human CD9 [10]): 2.6 fold
mean fluorescence intensity fold increase above isotype control (human CD9 [11]): 4.2 fold
mean fluorescence intensity fold increase above isotype control (human CD9 [12]): 3.9 fold
mean fluorescence intensity fold increase above isotype control (human CD9 [13]): 3.4 fold
mean fluorescence intensity fold increase above isotype control (human CD9 [14]): 31.6 fold
mean fluorescence intensity fold increase above isotype control (human CD9 [15]): 50.5 fold
mean fluorescence intensity fold increase above isotype control (human CD9 [16]): 80.5 fold
mean fluorescence intensity fold increase above isotype control (human CD9 [17]): 107 fold
mean fluorescence intensity fold increase above isotype control (human CD9 [18]): 13.3 fold
mean fluorescence intensity fold increase above isotype control (human CD9 [19]): 37.8 fold
mean fluorescence intensity fold increase above isotype control (human CD9 [20]): 64.9 fold
mean fluorescence intensity fold increase above isotype control (human CD9 [21]): 30.4 fold
mean fluorescence intensity fold increase above isotype control (human CD9 [22]): 19.8 fold
mean fluorescence intensity fold increase above isotype control (human CD9 [23]): 20.5 fold
mean fluorescence intensity fold increase above isotype control (human CD9 [24]): 8.7 fold
mean fluorescence intensity fold increase above isotype control (human CD9 [25]): 18.4 fold
